Measurements published in patent US20170290877A1.
Non-standard residues stand in square brackets, D forms with d. No end group written: not given here.

Molecular target: JNK in primary mouse cortical neurons
Experiment: cell-based or functional assay

## [dD][dQ][dS][dR][dP][dV][dQ][dP][dF][dL][dN][dL][dT][dT][dP][dR][dK][dP][dR][dP][dP][dR][dR][dR][dQ][dR][dR][dK][dK][dR]G [D-TAT-IB1(s)]
  JNK activation in Aβ42-stressed PKR-/- neurons (immunoblot), XG-102 at 10 µM: -35%
  JNK activity as ratio pJNK/JNK after 1 mM H2O2 (immunoblot), XG-102 at 10 µM (% of controls): 45
  c-Jun phosphorylation in Aβ42-stressed WT neurons (immunoblot), XG-102 at 10 µM: -74%
